Laboratory results: paper PMC7010908
Each block holds one binder with its values, some of them ahead of it.

Legend:
Conditions in all cases: remark: other sources report otherwise
[1] = target: T1, Native pentameric human C-reactive protein (Scripps) (human), P02741; assay: SEC; HiLoad 16/60 Superdex 200 pg, elution buffer B (50 mM tris, 150 mM NaCl, pH 7.2), 0.5 ml/min; pCRP after storage in 20 mM tris, 280 mM NaCl, 1 mM EDTA with 2, 2.5, 3 or 4 M urea at 4°C, 10 weeks
T1 chain: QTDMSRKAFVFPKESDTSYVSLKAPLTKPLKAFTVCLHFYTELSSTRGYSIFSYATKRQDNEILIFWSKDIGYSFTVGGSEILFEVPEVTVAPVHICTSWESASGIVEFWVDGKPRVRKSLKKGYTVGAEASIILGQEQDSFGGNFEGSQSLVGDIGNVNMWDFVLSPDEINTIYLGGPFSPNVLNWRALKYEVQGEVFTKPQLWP

[2] = target: T2, C-reactive protein purified from human serum of patients with raised CRP levels (>100 mg/L) (human (endogenous in patient serum)), P02741; assay: SEC; HiLoad 16/60 Superdex 200 pg, elution with buffer A (5 mM CaCl2), 0.5 ml/min; serum CRP first purified by PCho affinity chromatography and eluted with EDTA
T2 chain: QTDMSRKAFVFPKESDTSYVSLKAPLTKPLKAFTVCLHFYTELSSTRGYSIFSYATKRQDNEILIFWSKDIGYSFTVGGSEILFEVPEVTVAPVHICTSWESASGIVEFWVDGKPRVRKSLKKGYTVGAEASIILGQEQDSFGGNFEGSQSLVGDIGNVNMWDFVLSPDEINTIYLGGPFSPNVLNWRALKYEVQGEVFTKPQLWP

[3] = target: T3, Commercially sourced native C-reactive protein (Binding Site) (human), P02741; assay: SEC; size exclusion FPLC (recalibrated after a change of column), 0.5 ml/min; 500 μg and 100 μg of PCho affinity purified CRP loaded; fractions at the mCRP position tested by ELISA
T3 chain: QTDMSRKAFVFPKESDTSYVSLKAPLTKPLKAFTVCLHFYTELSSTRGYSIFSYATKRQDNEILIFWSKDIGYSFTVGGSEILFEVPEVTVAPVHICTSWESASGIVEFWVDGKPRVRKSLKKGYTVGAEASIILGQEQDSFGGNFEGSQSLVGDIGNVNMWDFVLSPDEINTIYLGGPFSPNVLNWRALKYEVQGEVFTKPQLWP

- stoichiometry N [1]: 5
B1: Native pentameric human C-reactive protein (Scripps), P02741 19-224 (natural protein)
chain: QTDMSRKAFVFPKESDTSYVSLKAPLTKPLKAFTVCLHFYTELSSTRGYSIFSYATKRQDNEILIFWSKDIGYSFTVGGSEILFEVPEVTVAPVHICTSWESASGIVEFWVDGKPRVRKSLKKGYTVGAEASIILGQEQDSFGGNFEGSQSLVGDIGNVNMWDFVLSPDEINTIYLGGPFSPNVLNWRALKYEVQGEVFTKPQLWP

- stoichiometry N [2]: 5
B2: C-reactive protein purified from human serum of patients with raised CRP levels (>100 mg/L), P02741 19-224 (natural protein)
chain: QTDMSRKAFVFPKESDTSYVSLKAPLTKPLKAFTVCLHFYTELSSTRGYSIFSYATKRQDNEILIFWSKDIGYSFTVGGSEILFEVPEVTVAPVHICTSWESASGIVEFWVDGKPRVRKSLKKGYTVGAEASIILGQEQDSFGGNFEGSQSLVGDIGNVNMWDFVLSPDEINTIYLGGPFSPNVLNWRALKYEVQGEVFTKPQLWP

- stoichiometry N [3]: 5
B3: Commercially sourced native C-reactive protein (Binding Site), P02741 19-224 (natural protein)
chain: QTDMSRKAFVFPKESDTSYVSLKAPLTKPLKAFTVCLHFYTELSSTRGYSIFSYATKRQDNEILIFWSKDIGYSFTVGGSEILFEVPEVTVAPVHICTSWESASGIVEFWVDGKPRVRKSLKKGYTVGAEASIILGQEQDSFGGNFEGSQSLVGDIGNVNMWDFVLSPDEINTIYLGGPFSPNVLNWRALKYEVQGEVFTKPQLWP
